Test results: US20160257760A1 (OXFORD BIOTHERAPEUTICS, published 2016)

Key:
Experiment in all cases: peptide microarray, 1 µg/mL LY75_A1, anti-human IgG Alexa 647
LTYSNFHP = biological target: T1, LTYSNFHP
T1 peptide: LTYSNFHP
Method: (§1) The chip comprised three panels such that the experiment was performed in triplicate. […] The binding assay was performed under the following conditions:—The microarray comprising the contiguous peptides in triplicate was washed with 1 mL of binding buffer at 4° C. for 20 min. […] The array was again washed with 0.5 mL of washing buffer at 4° C. for 30 min.

YSNFHPLL = biological target: T2, YSNFHPLL
T2 peptide: YSNFHPLL
Method: as §1

TYSNFHPL = biological target: T3, TYSNFHPL
T3 peptide: TYSNFHPL
Method: as §1

ELTYSNFH = biological target: T4, ELTYSNFH
T4 peptide: ELTYSNFH
Method: as §1

Measured: binding result

B1: LY75_A1 monoclonal antibody (antibody, V domains shown)
VH: EVQLVESGGGLVKPGGSLRLSCAASGFTYSNAWMSWVRQAPGKGLEWVGRIKSKTDGGTTDYAAPVQGRFTISRDDSKNTLYLQMNSLKTEDTAVYYCTIFGVVSFDYWGQGTLVTVSS
VL: DVQMTQSPSSLSASVGDRVTITCRASQSISDYLSWYQQRPGKAPNLLIYAASNLKTGVPSRFSGSGSGTDFTLTISTLQPEDFATYYCQQSYRSPWTFGQGTKVEIKR
notes: also called LY75A1 antibody; LY75_A1 antibody
binds: all assays above
